Experimental findings from patent US20240254182A1 (PROVINCIAL HEALTH SERVICES AUTHORITY, published 2024) are described below.

First the molecules themselves.
T1: WT G-CSFR(Ig-CRH), purified, tag cleaved (human, UniProt Q99062 26-331)
T1 construct: also called G-CSFRWT; wild type G-CSFR(Ig-CRH)
T1 chain: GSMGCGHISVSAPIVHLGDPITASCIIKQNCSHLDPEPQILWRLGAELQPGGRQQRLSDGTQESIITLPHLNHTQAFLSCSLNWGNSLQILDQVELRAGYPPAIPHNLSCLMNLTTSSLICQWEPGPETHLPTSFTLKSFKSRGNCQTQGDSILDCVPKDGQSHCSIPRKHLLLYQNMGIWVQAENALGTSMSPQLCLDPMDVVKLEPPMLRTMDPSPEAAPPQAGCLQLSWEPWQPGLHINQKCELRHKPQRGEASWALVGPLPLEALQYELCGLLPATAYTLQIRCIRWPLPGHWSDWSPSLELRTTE

T2: WT G-CSF, purified from insect cells, tag cleaved (human, UniProt P09919 31-206)
T2 construct: protein of the SPR; also called G-CSFWT; wild type G-CSF
T2 sequence: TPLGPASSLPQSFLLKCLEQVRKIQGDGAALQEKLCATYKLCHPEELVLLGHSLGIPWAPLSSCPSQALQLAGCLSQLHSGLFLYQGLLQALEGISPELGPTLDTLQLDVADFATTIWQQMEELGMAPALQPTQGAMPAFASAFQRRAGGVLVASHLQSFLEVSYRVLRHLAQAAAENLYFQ

B1: design 9 G-CSFE, tag cleaved (ligand)
chain: TPLGPASSLPQSFLLKCLEQVRKIQGDGAALQEKLCATYKLCHPEELVLLGHSLGIPWAPLSSCPSQALQLAGCLSQLHSGLFLYQGLLQALEGISPELGPTLRTLQKDVARFATTIWRQMKELGMAPALQPTQGAMPAFASAFQRRAGGVLVASHLQSFLEVSYRVLRHLAQAAAENLYFQ
notes: also called design 9 G-CSFE mutant
B2: design 117 G-CSFE, tag cleaved (ligand)
chain: TPLGPASSLPQSFLLKCLEQVRKIQGDGAALQEKLCATYKLCHPERLVLLGHSLGIPWAPLSSCPSQALQLAGCLSQLHSGLFLYQGLLQALEGISPELGPTLDTLQLDVADFATTIWQQMRRLGMAPALQPTQGAMPAFASAFQRRAGGVLVASHLQSFLEVSYRVLRHLAQAAAENLYFQ
notes: also called design 117 G-CSFE mutant
B3: design 134 G-CSFE, tag cleaved (ligand)
chain: TPLGPASSLPQSFLLKCLEQVRKIQGDGAALQEKLCATYKLCHPERLVLLGHSLGIPWAPLSSCPSQALQLAGCLSQLHSGLFLYQGLLQALEGISPELGPTLDTLQKDVARFATTIWQQMRRLGMAPALQPTQGAMPAFASAFQRRAGGVLVASHLQSFLEVSYRVLRHLAQAAAENLYFQ
B4: design 130 G-CSFR(Ig-CRH)E, tag cleaved (receptor)
chain: SMGCGHISVSAPIVHLGDPITASCIIKQNCSHLDPEPQILWELGAELQPGGRQQRLSDGTQESIITLPHLNHTQAFLSCSLNWGNSLQILDQVELRAGYPPAIPHNLSCLMNLTTSSLICQWEPGPETHLPTSFTLKSFKSRGNCQTQGDSILDCVPKDGQSHCSIPDKHLLLYQNMGIWVQAENALGTSMSPQLCLDPMDVVKLEPPMLRTMDPSPEAAPPQAGCLQLSWEPWQPGLHINQKCELRHKPQRGEASWALVGPLPLEALQYELCGLLPATAYTLQIRCIRWPLPGHWSDWSPSLELRTTE
notes: also called 130 ECD (Ig-CRH)
B5: design 401 G-CSFR(Ig-CRH)E, tag cleaved (receptor)
chain: SMGCGHISVSAPIVHLGDPITASCIIKQNCSHLDPEPQILWELGAELQPGGRQQRLSDGTQESIITLPHLNHTQAFLSCSLNWGNSLQILDQVELRAGYPPAIPHNLSCLMNLTTSSLICQWEPGPETHLPTSFTLKSFKSRGNCQTQGDSILDCVPKDGQSHCSIPDKHLLLYQNMGIWVQAENALGTSMSPQLCLDPMDVVKLEPPMLRTMDPSPEAAPPQAGCLQLSWEPWQPGLHINQKCELRHKPQRGEASWALVGPLPLEALQYELCGLLPATAYTLQIRCIDWPLPGHWSDWSPSLELRTTE
B6: design 402 G-CSFR(Ig-CRH)E, tag cleaved (receptor)
chain: SMGCGHISVSAPIVHLGDPITASCIIKQNCSHLDPEPQILWELGAELQPGGRQQRLSDGTQESIITLPHLNHTQAFLSCSLNWGNSLQILDQVELRAGYPPAIPHNLSCLMNLTTSSLICQWEPGPETHLPTSFTLKSFKSRGNCQTQGDSILDCVPKDGQSHCSIPEKHLLLYENMGIWVQAENALGTSMSPQLCLDPMDVVKLEPPMLRTMDPSPEAAPPQAGCLQLSWEPWQPGLHINQKCELRHKPQRGEASWALVGPLPLEALQYELCGLLPATAYTLQIRCIEWPLPGHWSDWSPSLELRTTE
B7: design 134 G-CSFR(Ig-CRH)E, tag cleaved (receptor)
chain: SMGCGHISVSAPIVHLGDPITASCIIKQNCSHLDPEPQILWELGAELQPGGRQQRLSDGTQESIITLPHLNHTQAFLSCSLNWGNSLQILDQVELRAGYPPAIPHNLSCLMNLTTSSLICQWEPGPETHLPTSFTLKSFKSEGNCQTQGDSILDCVPKDGQSHCSIPDKHLLLYQNMGIWVQAENALGTSMSPQLCLDPMDVVKLEPPMLRTMDPSPEAAPPQAGCLQLSWEPWQPGLHINQKCELRHKPQRGEASWALVGPLPLEALQYELCGLLPATAYTLQIRCIRWPLPGHWSDWSPSLELRTTE
notes: also called design 137 G-CSFR(Ig-CRH)E
B8: design 300 G-CSFR(Ig-CRH)E, tag cleaved (receptor)
chain: SMGCGHISVSAPIVHLGDPITASCIIKQNCSHLDPEPQILWRLGAELQPGGRQQRLSDGTQESIITLPHLNHTQAKLSCSLNWGNSLQILDKVELRAGYPPAIPHNLSCLMNLTTSSLICQWEPGPETHLPTSFTLKSFKSRGNCQTQGDSILDCVPKDGQSHCSIPDKHLLLYQNMGIWVQAENALGTSMSPQLCLDPMDVVKLEPPMLRTMDPSPEAAPPQAGCLQLSWEPWQPGLHINQKCELRHKPQRGEASWALVGPLPLEALQYELCGLLPATAYTLQIRCIRWPLPGHWSDWSPSLELRTTE
B9: design 304 G-CSFR(Ig-CRH)E, tag cleaved (receptor)
chain: SMGCGHISVSAPIVHLGDPITASCIIKQNCSHLDPEPQILWELGAELQPGGRQQRLSDGTQESIITLPHLNHTQAFLSCSLNWGNSLQILDQVKLRAGYPPAIPHNLSCLMNLTTSSLICQWEPGPETHLPTSFTLKSFKSRGNCQTQGDSILDCVPKDGQSHCSIPDKHLLLYQNMGIWVQAENALGTSMSPQLCLDPMDVVKLEPPMLRTMDPSPEAAPPQAGCLQLSWEPWQPGLHINQKCELRHKPQRGEASWALVGPLPLEALQYELCGLLPATAYTLQIRCIRWPLPGHWSDWSPSLELRTTE
B10: design 307 G-CSFR(Ig-CRH)E, tag cleaved (receptor)
chain: SMGCGHISVSAPIVHLGDPITASCIIKQNCSHLDPEPQILWELGAELQPGGRQQRLSDGTQESIITLPHLNHTQAFLSCSLNWGNSLQILDQVELRAGYPPAIPHNLSCLMNLTTSSLICQWEPGPETHLPTSFTLKSFKSRGNCQTQGDSILDCVPKDGQSHCSIPRKHLLLYQNMGIWVQAENALGTSMSPQLCLKPMKVVKLEPPMLRTMDPSPEAAPPQAGCLQLSWEPWQPGLHINQKCELRHKPQRGEASWALVGPLPLEALQYELCGLLPATAYTLQIRCIEWPLPGHWSDWSPSLELRTTE
B11: design 303 G-CSFR(Ig-CRH)E, tag cleaved (receptor)
chain: SMGCGHISVSAPIVHLGDPITASCIIKQNCSHLDPEPQILWRLGAELQPGGRQQRLSDGTQESIITLPHLNHTQAFLSCSLNWGNSLQILDQVKLRAGYPPAIPHNLSCLMNLTTSSLICQWEPGPETHLPTSFTLKSFKSRGNCQTQGDSILDCVPKDGQSHCSIPDKHLLLYQNMGIWVQAENALGTSMSPQLCLDPMDVVKLEPPMLRTMDPSPEAAPPQAGCLQLSWEPWQPGLHINQKCELRHKPQRGEASWALVGPLPLEALQYELCGLLPATAYTLQIRCIRWPLPGHWSDWSPSLELRTTE

The target in the first test is T1, WT G-CSFR(Ig-CRH), purified, tag cleaved. Description: SPR, WT G-CSFR(Ig-CRH) amine-coupled, G-CSFE injected, single-cycle kinetics. The protocol:
(§1) The SPR binding assays were carried out on a Biacore T200 instrument (GE Healthcare, Mississauga, ON, Canada) with PBS-T (PBS+0.05% (v/v) Tween 20) running buffer at a temperature of 25° C. CM5 Series S sensor chip, Biacore amine coupling kit (NHS, EDC and 1 M ethanolamine), and 10 mM sodium acetate buffers were all purchased from GE Healthcare. PBS running buffer with 0.05% Tween20 (PBS-T) was purchased from Teknova Inc. (Hollister, CA). Designs were assessed in three different immobilization orientations.
To assess binding affinity of G-CSFE to G-CSFRWT, recombinant G-CSFRWT purified as described in Example 5 was captured as described above in this Example. Using single-cycle kinetics, six concentrations of a two-fold dilution series of each G-CSFE mutant starting at […] with a blank buffer control were sequentially injected as described above. The same sample titration was also performed on a reference cell with no variants captured. The G-CSFRWT surface was regenerated as described above.
In the case of B1, the “KD fold change (against WT:WT)” value was determined as 79 fold.
Same read-out and setting: then B2, with 3.4 fold; and B3, with 465 fold.

For the next test, the target named is B7. The test is described as follows: SPR, G-CSFRE amine-coupled, G-CSFE injected, single-cycle kinetics. The protocol:
as §1
To determine binding affinity of G-CSFE to G-CSFRE the G-CSFRE mutant was captured by standard amine coupling as described by the manufacturer (GE LifeSciences). Briefly, immediately after EDC/NHS activation, a 5 μg/mL solution of G-CSFRE in 10 mM NaOAc, pH 5.0, was injected at a flow rate of 5 μL/min until a receptor density of ˜700-900 RU was reached. The remaining active groups were quenched by a 420 s injection of 1 M ethanolamine hydrochloride-NaOH pH 8.5 at 10 μL/min. Using single-cycle kinetics, six concentrations of a two-fold dilution series of the corresponding G-CSFE mutant starting at 200 nM with a blank buffer control were sequentially injected at 25 μL/min for 300 s with a 1800 s dissociation phase, resulting in a set of sensorgrams with a buffer blank reference. The same sample titration was also performed on a reference cell with no variants captured. The chip was regenerated to prepare for the next injection cycle by one pulse of 10 mM glycine/HCl, pH 2.0, for 30 s at 30 μL/min.
Double-referenced sensorgrams from duplicate or triplicate repeat injections were analyzed using Biacore™ T200 Evaluation Software v3.0 and fit to the 1:1 Langmuir binding model.
On to B3, for which the “KD fold change (against WT:WT)” value is 1 fold.

Another test has as its target T2, WT G-CSF, purified from insect cells, …. Description: SPR, single-cycle kinetics. (In general: In SPR one partner is held on a chip, and binding of the other changes the refractive index at the surface.)
Consider B4, for which the binding result is “no binding”.
On the same count and under the same terms, then B5, with “no binding”; and B6, with “no binding”.

The next test has the same target. The test is described as follows: SPR (Biacore T200), single-cycle kinetics.
For the molecule B7, the binding result is “no binding”.
Still for that read-out and setting: the same measure for B8: “no binding”; for B9: “no binding”.
The same measure, in the same setting: the same measure for B10: “no binding”.
The same measure, in the same setting: the same measure for B11: “no binding”.
